In EP0901379B1 one finds Surface Bound MIP-1α data, which are given here for one substance.

The target of the assay is human MIP-1α (human) (UniProt P10147). As to the kind of experiment: 125I-MIP-1α bound to cells with 200X molar excess M-T1, Exp. 1.
UniProt P10147, sequence (P10147 24-92 limits assumed): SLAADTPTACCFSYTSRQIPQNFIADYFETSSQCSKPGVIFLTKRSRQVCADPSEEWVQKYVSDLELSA

myxoma T1 protein (M-T1) showed a Surface Bound MIP-1α of 978 cpm.
